{"source": "paper PMC11952320", "experiment_in_all_cases": "co-IP", "key": {"[1]": {"target": "human GABAA receptor β2 subunit, variant Q209F210delinsH (human) (UniProt P47870)"}, "[2]": {"target": "human GABAA receptor β2 subunit, epilepsy-associated variant R240T (human) (UniProt P47870)"}, "[3]": {"target": "human GABAA receptor β2 subunit, epilepsy-associated variant I299S (human) (UniProt P47870)"}, "[4]": {"target": "human GABAA receptor β2 subunit, epilepsy-associated variant I246T (human) (UniProt P47870)"}}}
{"substance": "human GABAA receptor α1 subunit (GABRA1)", "values": [{"measurement": "percent reduction of the ratio of α1 to β2 after co-IP, against WT", "setting": "[1]", "result": 75, "unit": "%"}, {"measurement": "percent reduction of the ratio of α1 to β2 after co-IP, against WT", "setting": "[2]", "result": 80, "unit": "%"}, {"measurement": "percent reduction of the ratio of α1 to β2 after co-IP, against WT", "setting": "[3]", "result": 30, "unit": "%"}, {"measurement": "percent reduction of the ratio of α1 to β2 after co-IP, against WT", "setting": "[4]", "result": 30, "unit": "%"}]}
